# Experimental data: publication PMC5614552 (Biochemistry and Biophysics Reports, 2016)
# Molecular target: human CD34 protein (Fc tag; Sino Biological Incorporation) (Homo sapiens, UniProt P28906)
# Assay: SPR
# Sequence of human CD34 protein (Fc tag; Sino Biological Incorporation) (P28906 32-290): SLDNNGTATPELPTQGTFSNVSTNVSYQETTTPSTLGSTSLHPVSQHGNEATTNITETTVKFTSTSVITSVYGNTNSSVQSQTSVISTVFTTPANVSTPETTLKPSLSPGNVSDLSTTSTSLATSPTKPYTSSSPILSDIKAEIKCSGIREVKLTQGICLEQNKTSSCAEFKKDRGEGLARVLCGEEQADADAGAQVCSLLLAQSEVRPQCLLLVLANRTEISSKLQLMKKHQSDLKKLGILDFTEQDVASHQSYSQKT
binder,measurement,value
"Chimeric QBEND/10 (antibody, V domains shown) VH: QVQLEQSGPELVKPGASVKMSCKASGYTFTSYVIHWVKQKPGQGLEWLGYTNPYNDVTKYNEKFKFKATLTSDKQSTTAYMEFSSLTSEDSAVYYCARYGGLWLYAMDYWGQGTSVTVSS VL: QLVLTQSSSASFSLGASAKLTCTLSSQHRTFTIEWYQQQPLKPPKYVMELRKDGSHSTGDGIPDRFSGSSSGADRYLSISNIQPEDEAIYICGVGNTIKEQFVYVFGGGTKVTVL",Kd,14.7 nM
same,koff,0.000262 s⁻¹
same,kon,17800 M⁻¹ s⁻¹
